Experimental data: patent publication US20100278838A1, “EPHA2 MONOCLONAL ANTIBODIES AND METHODS OF USE THEREOF” (MEDIMMUNE, LLC, priority 2002, published 2010)

Columns and labels:
[1] = tested on: EphA2 on non-transformed MCF-10A cells; test: Flow cytometry of EA2 binding, non-transformed cells with or without EGTA; assay type: cell-based; settings: 10 μg/ml EA2; 4 mM EGTA 10-15 minutes on ice
Protocol: (§1) (A, B) Non-transformed MCF-10A cells were labeled with EA2 at 4° C. either before (A) or after (B) treatment with EGTA and prior to fixation and immunolabeling with fluorophore-conjugated anti-mouse IgG. (C, D) Non-transformed MCF-10A (C) or transformed MDA-MB-231 (D) cells were labeled with EA2 either before (middle) or after (top) treatment with EGTA. Control cells were incubated with secondary antibody alone (bottom). The amount of EA2-EphA2 binding was measured using flow cytometry.
(§2) An equivalent experiment was performed using MCF-10A or MDA-MB-231 cells. The amount of EA2 binding to EphA2 was measured using flow cytometry (FIGS. 17C-17D). Cells were either treated by incubation in 4 mM EGTA for 10-15 minutes on ice (top panel) or were not treated with EGTA (middle panel) before incubation with 10 μg/ml EA2. Cells were then fixed with 3% formalin and labeled with fluorophore-labeled donkey anti-mouse IgG. Control cells were incubated only with secondary antibody (fluorophore-labeled donkey anti-mouse IgG) in the absence of primary antibody (EA2) (bottom panel). The samples were then evaluated using flow cytometry (Becton Dickinson FACStar Plus).

[2] = tested on: EphA2 on transformed MDA-MB-231 cells; test: Flow cytometry of EA2 binding, transformed cells with or without EGTA; assay type: cell-based; settings: 10 μg/ml EA2; 4 mM EGTA 10-15 minutes on ice
Protocol: as §1, §2

[3] = target: T1, EphA2-Ephrin A1-Fc-EA2 complex (Homo sapiens, UniProt P29317); test: Displacement of labeled EA2 from EphA2-Ephrin A1-Fc complex by unlabeled competitor; assay type: binding; settings: biotinylated EA2 10 μg/ml, 30 min
T1 construct: consisting of the extracellular domain of EphA2 linked to human IgG1 constant region
Protocol: FIGS. 18A-18B: EphA2 EA2 epitope is distinct from Eph099B-233.152 epitope and ligand binding site. (A) EphA2-Fc was incubated with and bound to immobilized Ephrin A1-Fc. Labeled Ephrin A1-Fc (black), EA2 (white) or Eph099B-233.152 (grey) was incubated with the EphA2-Ephrin A1-Fc complex and amount of binding was measured. (B) EphA2-Fc was incubated with and bound to immobilized Ephrin A1-Fc. Labeled EA2 was then incubated with the EphA2-Ephrin A1 complex. Unlabeled competitor was incubated with EphA2-Ephrin A1-EA2 complex in the indicated amount. Competitors were Ephrin A1-Fc (black), EA2 (white) or Eph099B-233.152 (grey).
The EphA2-Ephrin A1-Fc complex was prepared as described above. Biotinylated EA2 (10 μg/ml) was then incubated with the complex for 30 min. Unlabeled competitor was incubated with EphA2-Ephrin A1-Fc-EA2 complex in the indicated amount. Unlabeled EA2 could displace the labeled EA2 at concentrations of 100 ng/ml or greater.

T1 sequence (P29317 24-537 limits assumed): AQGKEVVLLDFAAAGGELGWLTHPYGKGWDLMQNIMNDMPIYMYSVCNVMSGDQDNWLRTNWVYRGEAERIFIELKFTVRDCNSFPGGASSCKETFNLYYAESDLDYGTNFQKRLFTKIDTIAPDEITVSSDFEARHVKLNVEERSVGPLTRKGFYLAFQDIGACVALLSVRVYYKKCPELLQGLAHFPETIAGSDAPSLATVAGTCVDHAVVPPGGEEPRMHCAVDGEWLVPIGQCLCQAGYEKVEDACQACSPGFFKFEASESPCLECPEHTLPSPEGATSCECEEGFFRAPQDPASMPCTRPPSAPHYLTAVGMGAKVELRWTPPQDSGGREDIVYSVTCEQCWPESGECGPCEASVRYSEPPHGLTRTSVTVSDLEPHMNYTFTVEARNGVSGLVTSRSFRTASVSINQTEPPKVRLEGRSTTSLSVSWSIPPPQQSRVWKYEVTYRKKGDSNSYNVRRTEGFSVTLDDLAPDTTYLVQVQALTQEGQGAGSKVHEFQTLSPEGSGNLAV
T1 sequence (P20827 19-182 partner limits assumed): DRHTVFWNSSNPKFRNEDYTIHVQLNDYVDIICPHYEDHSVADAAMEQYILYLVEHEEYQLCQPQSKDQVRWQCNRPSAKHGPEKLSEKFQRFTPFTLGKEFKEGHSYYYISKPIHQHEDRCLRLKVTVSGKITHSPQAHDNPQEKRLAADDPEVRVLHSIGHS

Concentration of unlabeled competitor displacing labeled EA2 [3]: ≥ 100 ng/mL
B1: EA2: EphA2 agonistic monoclonal antibody; ATCC deposit no. PTA-4380; co-pending application Ser. No. 10/436,783; VL SEQ ID NO:33, VH SEQ ID NO:37 (antibody, listed as Homo Sapiens, V domains shown)
VH: DVKLVESGGGLVKPGGSLKLSCAASGFTFSSYTMSWVRQTPEKRLEWVATISSGGTYTYYPDSVKGRFTISRDNAKNTLYLQMSSLKSEDTAMYYCTREAIFTYWGQGTLVTVSA
VL: DIKMTQSPSSMYASLGERVTITCKASQDINNYLSWFQQKPGKSPKTLIYRANRLVDGVPSRFSGSGSGQDYSLTISSLEYEDMGIYYCLKYDEFPYTFGGGTKLEIK
Effect of EGTA treatment on EA2 binding, non-transformed cells [1]: increased by incubation in EGTA
Effect of EGTA treatment on EA2 binding, transformed cells [2]: did not affect
